This note sets out measurements from paper PMC466946 (Science Advances, 2024).

The target of this experiment is SARS-CoV-2 S ectodomain trimer (SΔTM), wild type (SARS-CoV-2, UniProt P0DTC2). As to the kind of experiment: SPR.

B1: neutralizing monoclonal antibody 4A8 (NTD-directed), human IgG1 kappa (antibody, V domains shown)
VH: EVQLVESGAEVKKPGASVKVSCKVSGYTLTELSMHWVRQAPGKGLEWMGGFDPEDGETMYAQKFQGRVTMTEDTSTDTAYMELSSLRSEDTAVYYCATSTAVAGTPDLFDYYYGMDVWGQGTTVTVSS
VL: EIVMTQSPLSSPVTLGQPASISCRSSQSLVHSDGNTYLSWLQQRPGQPPRLLIYKISNRFSGVPDRFSGSGAGTDFTLKISRVEAEDVGVYYCTQATQFPYTFGQGTKVDIK
In the case of B1, the Kd turned out to be 0.42 ± 0.07 nM.

What is called Kd is the constant that tells how readily two partners part at equilibrium.
